± gives the uncertainty stated by the source.
Assay: self-splicing fitness, log relative to wild type (ln ratio); higher = more splicing; Tetrahymena group I intron in knt gene, E. coli kanamycin selection, DiMSum; sequences stand for … in CUCUCU…GGAGGGAAAAGUUAUCAGGCAUGCACCUGGUAGCUAGUCUUUAAACCAAUAGAUUGCAUCGGUUUAAAAGGCAAGACCGUCAAAUUGCGGGAAAGGGGUCAACAGCCGUUCAGUACCAAGUCUCAGGGGAAACUUUGAGAUGGCCUUGCAAAGGGUAUGGUAAUAAGCUGACGGACAUGGUCCUAACCACGCAGCCAAGUCCUAAGUCAACAGAUCUUCUGUUGAUAUGGAUGCAGUUCACAGACUAAAUGUCGGUCGGGGAAGAUGUAUUCUUCUCAUAAGAUAUAGUCGGACCUCUCCUUAAUGGGAGCUAGCGGAUGAAGUGAUGCAACACUGGAGCCGCUGGGAACUAAUUUGUAUGCGAAAGUAUAUUGAUUAGUUUUGGAGUACUCGUGGUCG
Procedure, shortened: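 A randomised library covering all eight P1ex-region intron nucleotides was built with the intron in the knt kanamycin-resistance gene on pET-22b(+) and held in E. coli BL21(DE3). Cells were grown overnight at 37°C or 30°C on LB agar, with or without 25 μg/mL kanamycin, plus 100 μg/mL carbenicillin, 50 μM IPTG and 0.2% rhamnose, and pooled colonies were amplicon-sequenced on an Illumina HiSeq 2500. DiMSum fitness is the error-weighted combination of wild-type-normalised replicate fold changes, kanamycin versus none.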

| Sequence | self-splicing fitness (ln) (30 °C) | self-splicing fitness (ln) (37 °C) |
| --- | --- | --- |
| UCGUAGCAAUAUUACGUUUA | -1.5 ± 0.085 | -0.934 ± 0.08 |
| AAGUAGCAAUAUUACGUAGC | -3.25 ± 0.33 | -2.3 ± 0.31 |
| UACUAGCAAUAUUACGGCUG | -0.825 ± 0.14 | -0.545 ± 0.19 |
| UUAAAGCAAUAUUACGCUCU | -0.795 ± 0.15 | 0.21 ± 0.14 |
| UUCCAGCAAUAUUACGGAUG | -0.779 ± 0.058 | 0.293 ± 0.076 |
| AUCGAGCAAUAUUACGACCG | – | -1.63 ± 0.36 |
| GUGUAGCAAUAUUACGACCU | -0.216 ± 0.27 | 0.601 ± 0.24 |
| AGGUAGCAAUAUUACGUGCG | -0.955 ± 0.014 | -0.358 ± 0.033 |
| CCCCAGCAAUAUUACGGCCG | -3.62 ± 0.17 | -1.88 ± 0.16 |
| UAUCAGCAAUAUUACGGCGC | -2.69 ± 0.18 | -1.12 ± 0.21 |
| ACGUAGCAAUAUUACGCAAC | -2.74 ± 0.31 | -2.17 ± 0.35 |
| UUGAAGCAAUAUUACGCUCU | -1.82 ± 0.12 | -0.916 ± 0.12 |
| CUCGAGCAAUAUUACGGACC | -3.81 ± 0.37 | -2.52 ± 0.41 |
| GUGGAGCAAUAUUACGAAAC | – | -2.23 ± 0.3 |
| GCAAAGCAAUAUUACGGGAU | -1.93 ± 0.067 | -0.98 ± 0.097 |
| UUCCAGCAAUAUUACGAGGG | -3.28 ± 0.15 | -1.28 ± 0.15 |
| UAAAAGCAAUAUUACGUAUC | -3.81 ± 0.35 | -2.07 ± 0.23 |
| GACCAGCAAUAUUACGGGCU | -2.93 ± 0.14 | -1.96 ± 0.14 |
| ACACAGCAAUAUUACGAGAA | -3.53 ± 0.37 | -2.54 ± 0.24 |
| CUAUAGCAAUAUUACGUGUG | -1.04 ± 0.079 | -0.474 ± 0.096 |
| CGGUAGCAAUAUUACGAGAU | -3.19 ± 0.3 | -2.32 ± 0.28 |
| UAUUAGCAAUAUUACGGGCC | -2.84 ± 0.42 | – |
| GUGGAGCAAUAUUACGCUCG | -1.35 ± 0.16 | -1.39 ± 0.23 |
| CAACAGCAAUAUUACGCCAU | -3.25 ± 0.11 | -2.94 ± 0.14 |
| CCAGAGCAAUAUUACGAUUU | -3.77 ± 0.35 | -3.59 ± 0.39 |

| Sequence | self-splicing fitness (ln) (30 °C) | self-splicing fitness (ln) (37 °C) |
| --- | --- | --- |
| UUGGAGCAAUAUUACGAGUC | – | -3.03 ± 0.43 |
| UAAUAGCAAUAUUACGUAAU | -3.25 ± 0.29 | -2.52 ± 0.34 |
| AGAAAGCAAUAUUACGUAUG | -2.58 ± 0.12 | -3.05 ± 0.19 |
| UUUGAGCAAUAUUACGCAGG | -2.99 ± 0.21 | -1.34 ± 0.18 |
| GCUCAGCAAUAUUACGACUA | -0.565 ± 0.17 | -0.247 ± 0.18 |
| AUCUAGCAAUAUUACGCGGC | -3.15 ± 0.38 | -2.92 ± 0.33 |
| GCCGAGCAAUAUUACGUCAU | -3.5 ± 0.25 | -1.31 ± 0.17 |
| CAUCAGCAAUAUUACGAAGA | -2.97 ± 0.27 | -0.441 ± 0.15 |
| CGCCAGCAAUAUUACGUUGA | -2.84 ± 0.11 | -2.83 ± 0.13 |
| UGAAAGCAAUAUUACGGUUA | -0.156 ± 0.07 | -0.217 ± 0.064 |
| GACGAGCAAUAUUACGGAUA | -2.52 ± 0.24 | -2.55 ± 0.44 |
| UUUAAGCAAUAUUACGCGGC | – | -2.78 ± 0.31 |
| UAAAAGCAAUAUUACGUUGG | -2.36 ± 0.1 | -1.42 ± 0.12 |
| GAUCAGCAAUAUUACGGUUA | -0.25 ± 0.066 | 0.171 ± 0.067 |
| GCAGAGCAAUAUUACGGGAU | -3.53 ± 0.2 | -2.21 ± 0.19 |
| CCAUAGCAAUAUUACGCUAU | – | -3.35 ± 0.37 |
| CAGUAGCAAUAUUACGGGUG | -0.853 ± 0.06 | -0.398 ± 0.078 |
| UCCGAGCAAUAUUACGCCGC | – | -2.15 ± 0.49 |
| CUUUAGCAAUAUUACGUCUU | -3.41 ± 0.26 | -3.28 ± 0.33 |
| UACGAGCAAUAUUACGGAAA | – | -1.29 ± 0.32 |
| UGGCAGCAAUAUUACGUCGC | -3.89 ± 0.31 | -2.95 ± 0.43 |
| CACUAGCAAUAUUACGGGCA | -1.91 ± 0.21 | -1.71 ± 0.21 |
| GGAAAGCAAUAUUACGCAAG | -1.26 ± 0.14 | -1.13 ± 0.18 |
| CUACAGCAAUAUUACGAAGU | -4.24 ± 0.29 | -2.52 ± 0.19 |
| CGAAAGCAAUAUUACGGUCA | -0.303 ± 0.12 | -0.586 ± 0.14 |

From the supplement of paper PMC7877785
